The results in this text go back to paper PMC9500956, “In Vitro Characterization of the Physical Interactions between the Long Noncoding RNA TERRA and the Telomeric Proteins TRF1 and TRF2”.

What all share (test): EMSA; E. coli tRNA; RNA EMSA: 50 mM HEPES pH 8, 1 mM DTT, 100 mM NaCl, 0.01% BSA, 2% glycerol, 50 ng/uL E. coli tRNA, 0.25 nM RNA, 20 min on ice then 10 min 25 C; dsDNA EMSA: same
Background: A gel shift assay detects complexes by their altered migration in electrophoresis.

One data set addresses GST-TRF2 (human, UniProt Q15554 43-542). The note with it: protein: recombinant, tags: N-terminal GST, chain copies: 2, label: 5'-32P.
The target in a further data set is GST-TRF1 (human, UniProt P54274 1-439). The note with it: protein: recombinant, tags: N-terminal GST, chain copies: 2, label: 5'-32P.
The target in the next data set is T1, GST-B (hB) (human, UniProt Q15554 43-86).
T1 chain: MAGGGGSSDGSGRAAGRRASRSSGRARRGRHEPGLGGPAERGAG
The following applies: protein: recombinant, tags: N-terminal GST, label: 5'-32P.

Another data set concerns the target GST-hBL (human, UniProt Q15554 1-86). The following applies: protein: recombinant; tags: N-terminal GST; label: 5'-32P; G4-forming.
A further data set concerns the target T2, GST-A (hA) (human, UniProt P54274 1-66).
T2 sequence: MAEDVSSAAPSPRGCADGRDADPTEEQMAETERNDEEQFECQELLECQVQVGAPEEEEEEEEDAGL
The following applies: protein: recombinant; tags: N-terminal GST; label: 5'-32P; G4-forming.

For UUACGGUUACGGUUACGGUUACGGUUACGG (ssRNA) [MUT1 (UUACGG)5], the binding result with GST-TRF2 (not G4-forming), with GST-TRF1 (not G4-forming) and with GST-B (hB) (not G4-forming) was “no binding” in each case.

B1: TERRA (UUAGGG)12 (structured_RNA)
RNA: UUAGGGUUAGGGUUAGGGUUAGGGUUAGGGUUAGGGUUAGGGUUAGGGUUAGGGUUAGGGUUAGGGUUAGGG
In the case of B1, the binding result with GST-B (hB) is “binds”.

In the case of AAAGGGAAAGGGAAAGGGAAAGGGAAAGGG (structured_RNA) [MUT4 (AAAGGG)5], the binding result with GST-TRF2 (G4-forming), with GST-TRF1 (G4-forming) and with GST-B (hB) (G4-forming) was “binds” each time.

In the case of UUACCGUUACCGUUACCGUUACCGUUACCG (ssRNA) [MUT2 (UUACCG)5], the binding result in the data set with GST-TRF2 (not G4-forming), in the data set with GST-TRF1 (not G4-forming) and with GST-B (hB) (not G4-forming) was “no binding” in each case.

Turning to AUAGGGAUAGGGAUAGGGAUAGGGAUAGGG (structured_RNA) [MUT3 (AUAGGG)5], the binding result in the data set with GST-TRF2 (G4-forming), with GST-TRF1 (G4-forming) and in the data set with GST-B (hB) (G4-forming) was “binds” each time.

Regarding UUAGGGUUAGGGUUAGGGUUAGGGUUAGGG (structured_RNA) [TERRA (UUAGGG)5], the binding result in the data set with GST-hBL is listed as “binds”; with GST-TRF2 (G4-forming), “binds”; with GST-TRF1 (G4-forming), “binds”; with GST-A (hA), “no binding”; with GST-B (hB) (G4-forming) it was “binds”.
